According to article PMC11189632:

What was measured:
Experiment in all cases: co-IP
[1] = molecular target: β2m-assembled HA-HLA-G*01:01 (human | human (endogenous in HeLa))
[2] = molecular target: β2m-assembled HA-HLA-C*05:01 (human | human (endogenous in HeLa))
[3] = molecular target: β2m-assembled HA-HLA-C*07:02 (human | human (endogenous in HeLa))

B1: HCMV glycoprotein US10, untagged, transiently expressed (natural protein)
chain: ATEETREPTYFTCGCVIQNHVLKGAVKLYGQFPSPKTLRASAWLHDGENHERHRQPILVEGTATATEALYILLPTELSSPEGNRPRNYSATLTLASRDCYERFVCPVYDSGTPMGVLMNLTYLWYLGDYGAILKIYFGLFCGACVITRSLLLICGYYPPRE
With B1 as the binder, how does the US10 signal intensity relative to the maximum (HLA-G-bound US10) [1] read?
The US10 signal intensity relative to the maximum (HLA-G-bound US10) was 1 fold of max.

And the US10 signal intensity relative to the maximum (HLA-G-bound US10) [2]?
The US10 signal intensity relative to the maximum (HLA-G-bound US10) was 0.7 fold of max.

What about the US10 signal intensity relative to the maximum (HLA-G-bound US10) [3] of the same binder?
The US10 signal intensity relative to the maximum (HLA-G-bound US10) was 0.2 fold of max.
